According to article PMC3683045:

Test system: preKARS2 (cytosolic precursor of human mitochondrial lysyl-tRNA synthetase) (human), Q15046-2
Assay: EMSA
Conditions: 10 mM Mg2+; unmodified T7 transcript; EMSA: 20 mM Tris-HCl pH 7.5, 150 mM NaCl, 10 mM MgCl2, 5 mM DTT, 10% glycerol, 0.1 mg/ml BSA, 30 C, 15 min; native 8% PAGE in 0.5x Tris-borate pH 8.3, 5% …

Sequence of preKARS2 (cytosolic precursor of human mitochondrial lysyl-tRNA synthetase) (human), Q15046-2 (Q15046 other isoform, or with tags, fused parts or gaps): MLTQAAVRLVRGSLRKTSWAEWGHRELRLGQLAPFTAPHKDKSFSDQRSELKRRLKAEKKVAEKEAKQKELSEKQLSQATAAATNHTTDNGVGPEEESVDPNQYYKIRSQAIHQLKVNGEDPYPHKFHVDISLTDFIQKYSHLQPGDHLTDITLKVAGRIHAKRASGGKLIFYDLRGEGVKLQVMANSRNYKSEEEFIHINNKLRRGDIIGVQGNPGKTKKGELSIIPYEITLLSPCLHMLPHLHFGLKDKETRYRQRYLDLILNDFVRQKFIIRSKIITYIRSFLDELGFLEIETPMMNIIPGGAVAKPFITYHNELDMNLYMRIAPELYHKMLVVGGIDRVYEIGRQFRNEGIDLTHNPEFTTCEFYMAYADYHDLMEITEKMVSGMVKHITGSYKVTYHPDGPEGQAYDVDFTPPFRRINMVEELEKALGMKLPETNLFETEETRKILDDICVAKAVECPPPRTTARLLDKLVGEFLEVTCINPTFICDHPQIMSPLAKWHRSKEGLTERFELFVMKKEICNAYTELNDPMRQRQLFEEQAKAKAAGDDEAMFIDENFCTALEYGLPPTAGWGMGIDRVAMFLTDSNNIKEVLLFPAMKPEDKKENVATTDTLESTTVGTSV

Work on tRK1 (yeast tRNALys CUU) yielded a Kd of 0.3 µM.
